The text below walks through data of US20180009881A1 (VHSQUARED, published 2018).

In experiment [1] the target is T1, recombinant soluble human IL-6R (human, UniProt P08887 20-365).
T1 construct: extracellular domain; Printed only as 'soluble'; read as the extracellular domain; also called hIL-6R; sIL-6R
T1 sequence (looked up): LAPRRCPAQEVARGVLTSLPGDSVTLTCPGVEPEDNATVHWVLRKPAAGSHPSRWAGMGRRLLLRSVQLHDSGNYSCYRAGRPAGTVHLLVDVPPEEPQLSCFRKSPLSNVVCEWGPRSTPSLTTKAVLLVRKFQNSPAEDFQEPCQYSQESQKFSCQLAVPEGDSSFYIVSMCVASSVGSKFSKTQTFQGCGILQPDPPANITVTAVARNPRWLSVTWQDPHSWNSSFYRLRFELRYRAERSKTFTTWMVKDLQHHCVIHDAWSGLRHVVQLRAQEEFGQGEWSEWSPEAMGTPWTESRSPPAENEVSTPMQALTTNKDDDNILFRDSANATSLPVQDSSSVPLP
The experiment is described as follows: Standard gp130 ELISA: ICVD mixed with soluble human IL-6R, then IL-6; complex captured on coated gp130 (competition). (In general: ELISA stands for enzyme-linked immunosorbent assay.)

Experiment [2] deals with T2, recombinant human TNF (human, UniProt P01375 77-233).
T2 construct: also called TNF-alpha; TNFα
T2 sequence (P01375 77-233 limits assumed): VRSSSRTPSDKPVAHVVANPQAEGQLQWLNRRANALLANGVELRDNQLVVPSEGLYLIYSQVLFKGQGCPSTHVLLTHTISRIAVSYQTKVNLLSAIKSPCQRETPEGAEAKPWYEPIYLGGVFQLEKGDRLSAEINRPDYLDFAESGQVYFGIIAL
The experiment is described as follows: Standard TNFR2/TNF interference ELISA: ICVD mixed with human TNF, TNF captured on coated Enbrel (competition).

In experiment [3] the target is T2, recombinant human TNF. The experiment is described as follows: Standard TNFR2/TNF interference ELISA (competition), against ID32F.
In experiment [4] the target is T1, recombinant soluble human IL-6R. The experiment is described as follows: Standard gp130 ELISA: ICVD mixed with soluble human IL-6R, then IL-6; complex captured on coated gp130 (competition). The source holds these as a separate data set.

Substitutions are numbered along the chain they refer to. Names and notes keep the numbering of the source. Where two headings read alike, the source gives them in different places.

B1: anti-IL-6R ICVD 5G9 (VHH)
VHH: EVQLVESGGGLVQAGGSTRLTCKASGSIFNINSINVMAWYRQAPGKQRELVAIIGKGGGTNYADFVKGRFTISRDAAKNTVNLQMNSLKPEDTAVYYCYADYEDRDSPFNASWGQGTQVTVSS
B1: in experiment [1], the EC50 (as a rule, the concentration at which the effect is half-maximal) amounted to 0.09 nM.

B2: anti-IL-6R ICVD ID-54V (VHH)
VHH: B1 VHH with R105H
notes: also called 5G9 with R105H
Consider B2, for which, in experiment [1], the EC50 was 0.15 nM.

B3: anti-TNF-alpha ICVD ID8F-EV (VHH)
VHH: EVQLVESGGGLVQPGGSLKLSCAASGFDFSSHWMYWVRQAPGKELEWLSEINTNGLITHYGDSVKGRFTVSRNNAANKMYLELTRLEPEDTALYYCARNQKGLNKGQGTQVTVSS
notes: also called Q65B1 with a K59H substitution; K59H; not shown: C-terminal Flag-His6 tag
In the case of B3, the concentration for a half-maximal effect (EC50) in the experiment with recombinant human TNF [2] is 0.139 nM.

B4: anti-TNF-alpha ICVD ID34F (VHH)
VHH: B3 VHH with K101H
notes: also called Q65B1 with K59H and K101H
B4: the binding result with recombinant human TNF [3] is on record as “binds”.

B5: anti-TNF-alpha ICVD ID44F (VHH)
VHH: B3 VHH with H59Q
notes: also called Q65B1 with a K59Q substitution; K59Q; not shown: C-terminal Flag-His6 tag
As to B5, the EC50 with recombinant human TNF [2] is 0.245 nM.

B6: anti-TNF-alpha ICVD Q65B1 (VHH)
VHH: B3 VHH with H59K
notes: also called K59; not shown: C-terminal Flag-His6 tag
As for B6, the 50% effective concentration (EC50) with recombinant human TNF [2] is 0.0984 nM.

B7: anti-TNF-alpha ICVD ID43F (VHH)
VHH: B3 VHH with H59A
notes: also called Q65B1 with a K59A substitution; K59A; not shown: C-terminal Flag-His6 tag
In the case of B7, the concentration giving a half-maximal response (EC50) in the experiment with recombinant human TNF [2] is 0.603 nM.

B8: anti-IL-6R ICVD 7F6 (VHH)
VHH: EVQLVESGGGLVQAGGSTRLTCLASGSISSINVIGWYRQAPGKQRELVAMIGRGEGANYGDFAKGRFTISRDNSKNTVYLQMNSLKPEDTAVYYCYADYEDRDSPFNGSWGQGTQVTVSS
Take B8: the EC50 in experiment [4] came to 0.15 nM.

B9: anti-IL-6R ICVD ID-3V (VHH)
VHH: B8 VHH with R102H
notes: also called 7F6 with R102H
For the molecule B9, the EC50 in experiment [4] worked out at 0.16 nM.
